Source: paper PMC6120343 (Nature, 2018)

Key:
SEC = molecular target: the molecule itself; assay: SEC
[1] = molecular target: the molecule itself; assay: cryo-EM 2D class averages
[2] = molecular target: the molecule itself; assay: assembly and coassembly seen by negative stain electron microscopy
[3] = molecular target: DRP1 E116R mutant, full length (human, UniProt O00429-3 1-710, E116R); assay: as above

B1: DRP1 G362D, disease-associated mutant, full length (enzyme)
chain: MEALIPVINKLQDVFNTVGADIIQLPQIVVVGTQSSGKSSVLESLVGRDLLPRGTGIVTRRPLILQLVHVSQEDKRKTTGEENGVEAEEWGKFLHTKNKLYTDFDEIRQEIENETERISGNNKGVSPEPIHLKIFSPNVVNLTLVDLPGMTKVPVGDQPKDIELQIRELILRFISNPNSIILAVTAANTDMATSEALKISREVDPDGRRTLAVITKLDLMDAGTDAMDVLMGRVIPVKLGIIGVVNRSQLDINNKKSVTDSIRDEYAFLQKKYPSLANRNGTKYLARTLNRLLMHHIRDCLPELKTRINVLAAQYQSLLNSYGEPVDDKSATLLQLITKFATEYCNTIEGTAKYIETSELCDGARICYIFHETFGRTLESVDPLGGLNTIDILTAIRNATGPRPALFVPEVSFELLVKRQIKRLEEPSLRCVELVHEEMQRIIQHCSNYSTQELLRFPKLHDAIVEVVTCLLRKRLPVTNEMVHNLVAIELAYINTKHPDFADACGLMNNNIEEQRRNRLARELPSAVSRDKLIQDSRRETKNVASGGGGVGDGVQEPTTGNWRGMLKTSKAEELLAEEKSKPIPIMPASPQKGHAVNLLDVPVPVARKLSAREQRDCEVIERLIKSYFLIVRKNIQDSVPKAVMHFLVNHVKDTLQSELVGQLYKSSLLDDLLTESEDMAQRRKEAADMLKALQGASQIIAEIRETHLW
- stoichiometry N (SEC): 2
- stoichiometry N [1]: 24 chains (12 dimers)

B2: DRP1 S611D phosphomimetic mutant, full length (enzyme)
chain: MEALIPVINKLQDVFNTVGADIIQLPQIVVVGTQSSGKSSVLESLVGRDLLPRGTGIVTRRPLILQLVHVSQEDKRKTTGEENGVEAEEWGKFLHTKNKLYTDFDEIRQEIENETERISGNNKGVSPEPIHLKIFSPNVVNLTLVDLPGMTKVPVGDQPKDIELQIRELILRFISNPNSIILAVTAANTDMATSEALKISREVDPDGRRTLAVITKLDLMDAGTDAMDVLMGRVIPVKLGIIGVVNRSQLDINNKKSVTDSIRDEYAFLQKKYPSLANRNGTKYLARTLNRLLMHHIRDCLPELKTRINVLAAQYQSLLNSYGEPVDDKSATLLQLITKFATEYCNTIEGTAKYIETSELCGGARICYIFHETFGRTLESVDPLGGLNTIDILTAIRNATGPRPALFVPEVSFELLVKRQIKRLEEPSLRCVELVHEEMQRIIQHCSNYSTQELLRFPKLHDAIVEVVTCLLRKRLPVTNEMVHNLVAIELAYINTKHPDFADACGLMNNNIEEQRRNRLARELPSAVSRDKLIQDSRRETKNVASGGGGVGDGVQEPTTGNWRGMLKTSKAEELLAEEKSKPIPIMPASPQKGHAVNLLDVPVPVARKLDAREQRDCEVIERLIKSYFLIVRKNIQDSVPKAVMHFLVNHVKDTLQSELVGQLYKSSLLDDLLTESEDMAQRRKEAADMLKALQGASQIIAEIRETHLW
- binding result [2]: binds

B3: MID49_(126-454), soluble truncation of Mitochondrial Dynamics 49 without the N-terminal transmembrane anchor (domain or fragment)
chain: TLQERLLAFERDRVTIPAAQVALAKQLAGDIALELQAYFRSKFPELPFGAFVPGGPLYDGLQAGAADHVRLLVPLVLEPGLWSLVPGVDTVARDPRCWAVRRTQLEFCPRGSSPWDRFLVGGYLSSRVLLELLRKALAASVNWPAIGSLLGCLIRPSMASEELLLEVQHERLELTVAVLVAVPGVDADDRLLLAWPLEGLAGNLWLQDLYPVEAARLRALDDHDAGTRRRLLLLLCAVCRGCSALGQLGRGHLTQVVLRLGEDNVDWTEEALGERFLQALELLIGSLEQASLPCHFNPSVNLFSSLREEEIDDIGYALYSGLQEPEGLL
- binding result [3]: binds
